The record followed here is patent publication US20110150901A1 (published 2011).

As usually defined, the EC50 is the concentration giving half of the maximal effect. As a reminder, the IC50 is the concentration at which inhibition is half-maximal.

Where only a bound is given, the exact number is not on record here.

For assay [1], the target named is T1, recombinant human β-Klotho (UniProt Q86Z14 53-996). In words: ELISA. (In general: ELISA stands for enzyme-linked immunosorbent assay.)
The target in assay [2] is T1, recombinant human β-Klotho. The assay is described as follows: binding.
Assay [3] deals with T1, recombinant human β-Klotho. The assay is described as follows: ELISA. This is another data set of the same source.
Assay [4] has as its target huR4. The assay is described as follows: ELISA.
Assay [5] has as its target huR1b. The assay is described as follows: ELISA.
Assay [6] addresses huR4. In words: Alphascreen inhibition; FGF21/BK+R4.

T1 sequence (Q86Z14 53-996): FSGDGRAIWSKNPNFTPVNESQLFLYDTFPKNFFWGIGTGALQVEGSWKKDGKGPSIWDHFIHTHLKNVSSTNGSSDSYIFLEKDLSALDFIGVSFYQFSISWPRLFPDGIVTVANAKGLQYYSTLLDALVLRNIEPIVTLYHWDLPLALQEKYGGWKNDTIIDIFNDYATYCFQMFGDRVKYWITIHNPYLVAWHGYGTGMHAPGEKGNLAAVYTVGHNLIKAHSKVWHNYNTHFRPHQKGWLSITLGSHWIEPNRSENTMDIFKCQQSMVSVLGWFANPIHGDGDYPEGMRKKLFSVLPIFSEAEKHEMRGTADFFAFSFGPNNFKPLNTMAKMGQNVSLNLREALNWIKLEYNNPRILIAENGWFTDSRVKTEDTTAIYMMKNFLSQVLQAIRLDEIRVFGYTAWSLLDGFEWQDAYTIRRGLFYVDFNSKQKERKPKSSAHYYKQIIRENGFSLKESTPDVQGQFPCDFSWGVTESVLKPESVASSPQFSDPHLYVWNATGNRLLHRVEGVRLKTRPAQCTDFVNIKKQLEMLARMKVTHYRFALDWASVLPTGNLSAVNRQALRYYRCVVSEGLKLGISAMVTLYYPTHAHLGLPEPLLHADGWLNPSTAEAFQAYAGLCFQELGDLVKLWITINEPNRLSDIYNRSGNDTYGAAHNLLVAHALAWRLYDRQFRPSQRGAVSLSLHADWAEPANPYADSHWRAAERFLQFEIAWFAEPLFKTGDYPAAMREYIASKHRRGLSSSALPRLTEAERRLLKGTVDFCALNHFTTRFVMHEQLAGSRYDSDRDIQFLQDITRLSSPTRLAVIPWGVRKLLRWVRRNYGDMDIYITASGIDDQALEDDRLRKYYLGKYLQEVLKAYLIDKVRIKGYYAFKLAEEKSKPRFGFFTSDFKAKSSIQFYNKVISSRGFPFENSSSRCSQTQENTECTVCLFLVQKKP

B1: β-Klotho-binding monomer bKmutM28 (designed binder)
chain: CPWFHHFKCRNGQRIPLHLVCDGVPDCGDDSDETDCGDSHILPFSTPGPST
As to B1, in assay [1], the EC50 was found to be 214 nM.

B2: β-Klotho walked dimer BK_R1c_D15 (designed binder)
chain: CLPDEFQCGSGRCIPQTWVCDGLNDCGDGSDEPPAHCSAPASEPPGSLCRSNQFTCGNGNCIPQPWVCDGEDDCGDDSDEESCKEHT
For the molecule B2, the EC50 in assay [2] was 9.1 nM.

B3: β-Klotho walked dimer bKWD01 (designed binder)
chain: CLPDEFQCGSGRCIPQHWLCDGLNDCGDGSDEPPAHCSAPASEPPGSLCRAGEFRCSNGRCVPLTWLCDGEDDCQDNSDEKNCAQPT
For the molecule B3, the EC50 is 0.05 nM in assay [2] and below 0.4 nM in assay [3].

B4: R1c_M31 (designed binder)
chain: CLSDQFTCRSTNICLPLQWVCDGDDDCEDNSDEEDCSAPASEPPGSL
For B4, the EC50 in assay [4] is around 300 nM; in assay [5], 112 nM. This molecule also displayed an IC50 in assay [6] of 5 µM.

B5: β-Klotho walked dimer BK_R1c_D14 (designed binder)
chain: CLPDEFQCGSGRCIPQTWVCDGLNDCGDGSDEPPAHCSAPASEPPGSLCRSDEFRCGNGRCIPLTWVCDGEDDCQDSSDETGCTTPGHT
Consider B5, for which, in assay [2], the EC50 amounted to 23 nM.

B6: R1c_M33 (designed binder)
chain: CRLNEFPCGSGSCISLHWVCDSVPDCRDDSDETDCPERT
In assay [4], B6 returned an EC50 of around 300 nM.

B7: BK_RI_D05 (designed binder)
chain: CAAGQFRCHNSDTCLPGAWVCDGDNDCGDNSDEASCQKRTCHSFNQFECRNGQCIPLHLVCDGVPDCGDNSDETDCGDSHILPFSTPGPST
As to B7, a half-maximal response in assay [4] (EC50) required 45.1 nM.

B8: R1c_M08 (designed binder)
chain: CGAGQFTCRDTNICISRAWRCDGVDDCEDNSDEADCSQDPEFHKV
Regarding B8, the EC50 in assay [5] came to 17 nM.
